System: Bacillus subtilis
Experiment: cleaved RNA product abundance (RNA/gDNA barcode ratio) relative to median wild-type variant (ratio to wild type); higher = more accumulation of the downstream cleavage product
Conditions: cleavage site: cggR-gapA (positions -7 to +36 mutated)
Summary of the method: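 Oligos with a 9% error rate were used to build barcoded, mutagenized RNase Y cleavage-site windows within truncated aprE or tetM reporter mRNAs, which were integrated into the B. subtilis chromosome. Cultures were grown in LB at 37°C between OD600 0.0003 and 0.3. Cleaved RNA was gel-selected, reverse transcribed and barcode-sequenced, as were genomic DNA barcodes, and UMIs were collapsed. Cleaved product abundance is the scaled RNA:gDNA barcode ratio, with the median construct carrying the unmutated site as reference.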

[1] = experiment (reporter, strain, medium): exp 4a: truncated aprE reporter, strain BJT201 with 2% xylose (RNase J1 expressed)
[2] = experiment (reporter, strain, medium): exp 2b: truncated aprE reporter, strain BJT200

Row | Sequence | cleaved RNA product abundance [1] | cleaved RNA product abundance [2] | cleaved RNA product abundance (experiment (reporter, strain, medium): exp 6: tetM reporter, strain 168)
1 | ACAGACGAAGGAGCCGCATAGAAGTTATTAAGGAATGAATAATTCCTCAATATAAATATCTCTCACTTATTTAAA | 0.893 |  | 
2 | ACAGACGAAGGAGCCGCATAGAAGTTATTAAGGAATGAATATTCCCTCAATATAAATATCTCTCACTTATTTAAA | 0.263 |  | 
3 | ACAGACGAAGGAGCCGCATAGAAGTTATTAAGGCATGAATAAGCCCTCAATATAAATATCTCTCACTTATTTAAA | 0.143 |  | 
4 | ACAGACGAAGGAGCCGCATAGAAGTTATTAAGGCATGAATAATCCCTCAATATAAATATCTCTCACTTATTTAAA | 0.13 | 0.0988 | 
5 | ACAGACGAAGGAGCCGCATAGAAGTTATTAAGGGAAGAATAATCCCTCAATATAAATATCTCTCACTTATTTAAA | 0.6 |  | 
6 | ACAGACGAAGGAGCCGCATAGAAGTTATTAAGGGATAAATAATCCCTCAATATAAATATCTCTCACTTATTTAAA | 0.861 | 1.03 | 
7 | ACAGACGAAGGAGCCGCATAGAAGTTATTAAGGGATCAATAATCCCTCAATATAAATATCTCTCACTTATTTAAA | 1.04 |  | 
8 | ACAGACGAAGGAGCCGCATAGAAGTTATTAAGGGATGAAGAATCCCTCAATATAAATATCTCTCACTTATTTAAA | 0.861 |  | 
9 | ACAGACGAAGGAGCCGCATAGAAGTTATTAAGGGATGAATAAACCCTCAATATAAATATCTCTCACTTATTTAAA | 0.471 | 0.448 | 
10 | ACAGACGAAGGAGCCGCATAGAAGTTATTAAGGGATGAATAACCCCTCAATATAAATATCTCTCACTTATTTAAA |  | 0.457 | 
11 | ACAGACGAAGGAGCCGCATAGAAGTTATTAAGGGATGAATAAGCCCTCAATATAAATATCTCTCACTTATTTAAA | 0.32 |  | 
12 | ACAGACGAAGGAGCCGCATAGAAGTTATTAAGGGATGAATAATACCTCAATATAAATATCTCTCACTTATTTAAA | 0.179 | 0.115 | 
13 | ACAGACGAAGGAGCCGCATAGAAGTTATTAAGGGATGAATAATCACTCAATATAAATATCTCTCACTTATTTAAA | 0.166 | 0.134 | 
14 | ACAGACGAAGGAGCCGCATAGAAGTTATTAAGGGATGAATAATCCATCAATATAAATATCTCTCACTTATTTAAA | 0.245 | 0.112 | 
15 | ACAGACGAAGGAGCCGCATAGAAGTTATTAAGGGATGAATAATCCCACAATATAAATATCTCTCACTTATTTAAA | 0.292 |  | 
16 | ACAGACGAAGGAGCCGCATAGAAGTTATTAAGGGATGAATAATCCCCCAATATAAATATCTCTCACTTATTTAAA | 0.319 | 0.247 | 
17 | ACAGACGAAGGAGCCGCATAGAAGTTATTAAGGGATGAATAATCCCTAAATATAAATATCTCTCACTTATTTAAA | 0.658 |  | 
18 | ACAGACGAAGGAGCCGCATAGAAGTTATTAAGGGATGAATAATCCCTCAACATAAATATCTCTCACTTATTTAAA | 0.317 |  | 
19 | ACAGACGAAGGAGCCGCATAGAAGTTATTAAGGGATGAATAATCCCTCAATAGAAATATCTCTCACTTATTTAAA | 0.149 |  | 
20 | ACAGACGAAGGAGCCGCATAGAAGTTATTAAGGGATGAATAATCCCTCAATATAAACATCTCTCACTTATTTAAA | 1 |  | 
21 | ACAGACGAAGGAGCCGCATAGAAGTTATTAAGGGATGAATAATCCCTCAATATAAATATCTCTCACTTATTTAAA | 1.01 | 1 | 1.06

Row | Sequence | cleaved RNA product abundance [1] | cleaved RNA product abundance [2] | cleaved RNA product abundance (experiment (reporter, strain, medium): exp 6: tetM reporter, strain 168)
22 | ACAGACGAAGGAGCCGCATAGAAGTTATTAAGGGATGAATAATCCCTCAATATAAATTTCTCTCACTTATTTAAA | 0.644 |  | 
23 | ACAGACGAAGGAGCCGCATAGAAGTTATTAAGGGATGAATAATCCCTCAATATTAATATCTCTCACTTATTTAAA | 0.121 |  | 
24 | ACAGACGAAGGAGCCGCATAGAAGTTATTAAGGGATGAATAATCCCTCAATTTAAATATCTCTCACTTATTTAAA |  | 0.195 | 
25 | ACAGACGAAGGAGCCGCATAGAAGTTATTAAGGGATGAATAATCCCTCACTATAAATATCTCTCACTTATTTAAA | 0.24 |  | 
26 | ACAGACGAAGGAGCCGCATAGAAGTTATTAAGGGATGAATAATCCCTCATTATAAATATCTCTCACTTATTTAAA | 0.41 |  | 
27 | ACAGACGAAGGAGCCGCATAGAAGTTATTAAGGGATGAATAATCCCTCCATATAAATATCTCTCACTTATTTAAA | 0.24 |  | 
28 | ACAGACGAAGGAGCCGCATAGAAGTTATTAAGGGATGAATAATCCCTGAATATAAATATCTCTCACTTATTTAAA | 0.679 |  | 
29 | ACAGACGAAGGAGCCGCATAGAAGTTATTAAGGGATGAATAATCCCTTAATATAAATATCTCTCACTTATTTAAA | 0.448 | 1.12 | 
30 | ACAGACGAAGGAGCCGCATAGAAGTTATTAAGGGATGAATAATCCGTCAATATAAATATCTCTCACTTATTTAAA | 0.235 |  | 
31 | ACAGACGAAGGAGCCGCATAGAAGTTATTAAGGGATGAATAATCCTTCAATATAAATATCTCTCACTTATTTAAA | 0.54 | 0.516 | 
32 | ACAGACGAAGGAGCCGCATAGAAGTTATTAAGGGATGAATAATCGCTCAATATAAATATCTCTCACTTATTTAAA | 0.141 |  | 
33 | ACAGACGAAGGAGCCGCATAGAAGTTATTAAGGGATGAATAATCTCTCAATATAAATATCTCTCACTTATTTAAA |  | 1.08 | 
34 | ACAGACGAAGGAGCCGCATAGAAGTTATTAAGGGATGAATAATGCCTCAATATAAATATCTCTCACTTATTTAAA | 0.141 |  | 
35 | ACAGACGAAGGAGCCGCATAGAAGTTATTAAGGGATGAATACTCCCTCAATATAAATATCTCTCACTTATTTAAA | 0.618 |  | 
36 | ACAGACGAAGGAGCCGCATAGAAGTTATTAAGGGATGACTAATCCCTCAATATAAATATCTCTCACTTATTTAAA | 0.679 |  | 
37 | ACAGACGAAGGAGCCGCATAGAAGTTATTAAGGGATGCATAATCCCTCAATATAAATATCTCTCACTTATTTAAA | 0.933 |  | 
38 | ACAGACGAAGGAGCCGCATAGAAGTTATTAAGGGATTAATAATCCCTCAATATAAATATCTCTCACTTATTTAAA | 1.38 | 1 | 
39 | ACAGACGAAGGAGCCGCATAGAAGTTATTAAGGGTTGAATAATCCCTCAATATAAATATCTCTCACTTATTTAAA | 0.41 | 0.498 | 
40 | ACAGACGAAGGAGCCGCATAGAAGTTATTAAGGTATGAATAATCCCTCAATATAAATATCTCTCACTTATTTAAA | 0.159 |  | 
41 | ACAGACGAAGGAGCCGCATAGAAGTTATTAAGTGATGAATAATCCCTCAATATAAATATCTCTCACTTATTTAAA | 0.0818 | 0.121 | 
42 | ACAGACGAAGGAGCCGCATAGAAGTTATTAATGGATGAATAATCCCTCAATATAAATATCTCTCACTTATTTAAA | 0.214 | 0.142 | 

Row | Sequence | cleaved RNA product abundance [1] | cleaved RNA product abundance [2] | cleaved RNA product abundance (experiment (reporter, strain, medium): exp 6: tetM reporter, strain 168)
43 | ACAGACGAAGGAGCCGCATAGAAGTTATTCAGGGATGAATAATCCCTCAATATAAATATCTCTCACTTATTTAAA | 0.947 |  | 
44 | ACAGACGAAGGAGCCGCATAGAAGTTATTTAGGGATGAATAATCCCTCAATATAAATATCTCTCACTTATTTAAA | 0.962 |  | 
45 | ACAGACGAAGGAGCCGCATAGAAGTTTTTAAGGGATGAATAATCCCTCAATATAAATATCTCTCACTTATTTAAA | 0.561 |  | 
46 | ACAGACGAAGGAGCCGCATAGAATTTATTAAGGGATGAATAATCCCTCAATATAAATATCTCTCACTTATTTAAA | 0.514 | 0.76 | 
47 | ACAGACGAAGGAGCCGCATAGATGTTATTAAGGGATGAATAATCCCTCAATATAAATATCTCTCACTTATTTAAA | 1.38 |  | 
48 | ACAGACGAAGGAGCCGCATATAAGTTATTAATGGATGAATAATCCCTCAATATAAATATCTCTCACTTATTTAAA | 0.131 |  | 
49 | ACAGACGAAGGAGCCGCCAAGAAATTATTAAGGGATGAATAATCCCTCAATATAAATATCTCTCACTTATTTAAA | 0.549 |  | 
50 | ACAGACGAAGGAGCCGCCAAGAAGTAATTAAGGGATGAATAATCCCTCAATATAAATATCTCTCACTTATTTAAA | 0.375 |  | 
51 | ACAGACGAAGGAGCCGCCAAGAAGTTATTAAAGGATGAATAATCCCTCAATATAAATATCTCTCACTTATTTAAA | 0.144 |  | 
52 | ACAGACGAAGGAGCCGCCAAGAAGTTATTAACGGATGAATAATCCCTCAATATAAATATCTCTCACTTATTTAAA |  | 0.0909 | 
53 | ACAGACGAAGGAGCCGCCAAGAAGTTATTAAGGAATGAATAATCCCTCAATATAAATATCTCTCACTTATTTAAA | 0.107 |  | 
54 | ACAGACGAAGGAGCCGCCAAGAAGTTATTAAGGGATGAAAAATCCCTCAATATAAATATCTCTCACTTATTTAAA | 0.576 |  | 
55 | ACAGACGAAGGAGCCGCCAAGAAGTTATTAAGGGATGAATAAACCCTCAATATAAATATCTCTCACTTATTTAAA | 0.471 |  | 
56 | ACAGACGAAGGAGCCGCCAAGAAGTTATTAAGGGATGAATAATCACTCAATATAAATATCTCTCACTTATTTAAA | 0.102 |  | 
57 | ACAGACGAAGGAGCCGCCAAGAAGTTATTAAGGGATGAATAATCCATCAATATAAATATCTCTCACTTATTTAAA | 0.327 |  | 
58 | ACAGACGAAGGAGCCGCCAAGAAGTTATTAAGGGATGAATAATCCCTCAATATAAATATCTCTCACTTATTTAAA | 0.872 | 0.985 | 
59 | ACAGACGAAGGAGCCGCCAAGAAGTTATTAAGGGATGAATAATCCCTCACTATAAATATCTCTCACTTATTTAAA |  | 0.191 | 
60 | ACAGACGAAGGAGCCGCCAAGAAGTTATTAAGGGATGAATAATCCCTTAATATAAATATCTCTCACTTATTTAAA | 0.305 | 0.21 | 
61 | ACAGACGAAGGAGCCGCCAAGAAGTTATTAAGGGATGAATAATCCTTCAATATAAATATCTCTCACTTATTTAAA | 0.531 | 0.518 | 

Reference: the supplement of paper PMC11780869
